# Source: the supplement of paper PMC10724198
# ± gives the standard deviation of the averaged measurements.
# Columns and labels:
# Saccharomyces cerevisiae [1] = assay: protein stability index of tFT-peptide fusion (C-terminal peptide) (PSI (0-1 scale)); higher = more stable (slower turnover)
# Procedure: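 MPS profiling in S. cerevisiae of the tFT-X12 degron library: putative degron peptides plus stable controls, 12 aa, fused to the C-terminus of a sfGFP-mCherry timer. Cells are FACS-sorted into 8 mCherry/sfGFP bins and deep-sequenced. PSI runs from 0 (unstable) to 1 (stable). Backgrounds are wild type, das1Δ and doa10Δ at 30 °C, and wild type, das1Δ, cdc34-1 and cdc53-1 at 37 °C; 2-3 technical replicates each.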
# Saccharomyces cerevisiae [2] = assay: as above; conditions: genetic background: wild type; temperature: 30 C
# [3] = genetic background: cdc34-1, temperature: 37 C
# [4] = genetic background: cdc53-1, temperature: 37 C
# [5] = genetic background: das1 deletion, temperature: 30 C
# [6] = genetic background: das1 deletion, temperature: 37 C
# [7] = genetic background: doa10 deletion, temperature: 30 C
# [8] = genetic background: wild type, temperature: 30 C
# [9] = genetic background: wild type, temperature: 37 C
# 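Note: PSI is a weighted mean of sequencing reads over stability bins, variants kept only with over 10 reads, mCherry proximal and sfGFP distal, peptide attached via GGGS linker.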
Sequence,protein stability index (Saccharomyces cerevisiae [1]; [3]),protein stability index (Saccharomyces cerevisiae [1]; [4]),protein stability index (Saccharomyces cerevisiae [1]; [5]),protein stability index (Saccharomyces cerevisiae [1]; [6]),protein stability index (Saccharomyces cerevisiae [1]; [7]),protein stability index (Saccharomyces cerevisiae [1]; [8]),protein stability index (Saccharomyces cerevisiae [1]; [9]),protein stability index (Saccharomyces cerevisiae [2])
LWVTRVYCLLVC,0.0444 ± 0.016,0.158 ± 0.03,0.168 ± 0.019,0.233 ± 0.019,0.0555 ± 0.02,0.0507 ± 0.015,0.0739 ± 0.015,0.0818 ± 0.0069
VSVVLKTQRVVC,0.595 ± 0.026,0.607 ± 0.008,0.432 ± 0.039,0.60289 ± 0.00044,0.3 ± 0.0041,0.346 ± 0.033,0.535 ± 0.01,0.4809 ± 0.0012
SVPRTRAPRLIS,0.646 ± 0.027,0.73 ± 0.034,0.658 ± 0.025,0.71911 ± 0.00014,0.184 ± 0.0079,0.213 ± 0.024,0.4611 ± 0.00082,0.384 ± 0.041
VCGYGFAVPCYT,0.489 ± 0.013,0.549 ± 0.021,0.37 ± 0.026,0.5832 ± 0.0026,0.327 ± 0.012,0.372 ± 0.012,0.535 ± 0.0076,0.437 ± 0.02
RWALPALWAYAA,0.493 ± 0.029,0.715 ± 0.034,0.583 ± 0.025,0.7029 ± 0.007,0.0884 ± 0.011,0.105 ± 0.012,0.16 ± 0.05,0.146 ± 0.094
SSVFRLKGLMFL,0.622 ± 0.062,0.721 ± 0.042,0.65 ± 0.047,0.7146 ± 0.0016,0.262 ± 0.0081,0.277 ± 0.016,0.448 ± 0.012,0.442 ± 0.038
LACGIDGYYWRH,0.703 ± 0.048,0.7448 ± 0.0019,0.667 ± 0.015,0.73851 ± 0.00042,0.6631 ± 0.0021,0.682 ± 0.028,0.709 ± 0.017,0.792 ± 0.027
CSVPLGVFAIVV,0.463 ± 0.0057,0.471 ± 0.032,0.382 ± 0.028,0.514 ± 0.0019,0.347 ± 0.0035,0.365 ± 0.038,0.4894 ± 0.0029,0.48 ± 0.019
LLPYSLSLALRA,0.395 ± 0.0049,0.391 ± 0.015,0.314 ± 0.048,0.468 ± 0.0073,0.2604 ± 0.0023,0.28 ± 0.027,0.429 ± 0.015,0.412 ± 0.0096
LFGRVLSGILSV,0.687 ± 0.04,0.721 ± 0.015,0.567 ± 0.019,0.702 ± 0.028,0.474 ± 0.014,0.524 ± 0.037,0.68 ± 0.011,0.523 ± 0.06
FIRLTFLRLSCI,0.546 ± 0.021,0.623 ± 0.03,0.51 ± 0.034,0.638 ± 0.031,0.183 ± 0.015,0.199 ± 0.0096,0.391 ± 0.0049,0.255 ± 0.022
TLFSPPVLATPS,0.624 ± 0.042,0.6754 ± 0.0047,0.528 ± 0.026,0.676 ± 0.0092,0.513 ± 0.021,0.54 ± 0.014,0.644 ± 0.0088,0.0225 ± 0.011
LYLCLVSPVVVL,0.156 ± 0.011,0.172 ± 0.0061,0.226 ± 0.024,0.296 ± 0.0064,0.184 ± 0.011,0.204 ± 0.032,0.2571 ± 0.0014,0.296 ± 0.029
WCFGSLLIRFSL,0.416 ± 0.057,0.446 ± 0.016,0.453 ± 0.04,0.5548 ± 0.0037,0.5049 ± 0.00066,0.411 ± 0.0096,0.516 ± 0.013,0.458 ± 0.024
LAVVLVWVPGRW,0.443 ± 0.037,0.526 ± 0.057,0.335 ± 0.032,0.563 ± 0.019,0.311 ± 0.0059,0.347 ± 0.023,0.561 ± 0.05,0.418 ± 0.026
MCRMYELYVTSS,0.504 ± 0.046,0.568 ± 0.079,0.382 ± 0.034,0.588 ± 0.026,0.349 ± 0.025,0.374 ± 0.018,0.558 ± 0.016,0.467 ± 0.01
VFFGLYLVTFTS,0.219 ± 0.036,0.302 ± 0.045,0.222 ± 0.026,0.379 ± 0.013,0.196 ± 0.015,0.202 ± 0.025,0.3575 ± 0.0028,0.409 ± 0.042
FFFFPVYFIFVV,0.272 ± 0.014,0.288 ± 0.05,0.259 ± 0.02,0.409 ± 0.013,0.259 ± 0.01,0.232 ± 0.016,0.32 ± 0.0059,0.311 ± 0.0065
LNVEEGGGLENV,0.698 ± 0.043,0.727 ± 0.023,0.631 ± 0.026,0.719 ± 0.024,0.661 ± 0.044,0.637 ± 0.044,0.699 ± 0.018,0.536 ± 0.1
PGRHSVRFVFVC,0.349 ± 0.023,0.519 ± 0.046,0.444 ± 0.019,0.581 ± 0.024,0.113 ± 0.0067,0.112 ± 0.028,0.143 ± 0.0068,0.208 ± 0.06
